Molecular target: Sec61β (dog (endogenous in canine pancreatic microsomes)) (UniProt P60467)
Test: cross-linking; BMH on microsomes stripped of ribosomes with EDTA and high salt (EKRM); western blot with anti-Sec62; also with purified canine ribosomes added back

Chain of UniProt P60467 (P60467 whole entry): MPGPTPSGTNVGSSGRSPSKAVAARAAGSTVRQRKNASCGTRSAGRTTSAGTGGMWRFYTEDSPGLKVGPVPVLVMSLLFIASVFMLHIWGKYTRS

Sec62 (from UniProt P82009 1-39) (natural protein)
percent of Sec62 cross-linked to Sec61β: > 50%

Reference: article PMC4686813
